According to the supplement of paper PMC9112550, “Optimization of the antimicrobial peptide Bac7 by deep mutational scanning” (BMC Biology, 2022):

System: Escherichia coli TOP10
Assay: shrunken log2 fold change of peptide-encoding DNA abundance (4.5 h post-induction vs induction); higher = less antimicrobial activity (less host growth inhibition)
Conditions: time post-induction: 4.5 h; library: site-saturation at positions 5, 18, 19, 20
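Note: peptides expressed intracellularly from a pBAD plasmid library in pooled LB shake-flask culture, induced with 0.3% L-arabinose, DNA abundance read by NGS, three biological replicates, DESeq2 with apeglm shrinkage.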

Sequence	shrunken log2 fold change
RRIRGRPPRLPRPRPRPTPIPRP	0.79
RRIRWRPPRLPRPRPRPHPKPRP	0.408
RRIRRRPPRLPRPRPRPIGYPRP	0.0143
RRIRGRPPRLPRPRPRPNISPRP	0.231
RRIRSRPPRLPRPRPRPRSWPRP	0.0511
RRIRMRPPRLPRPRPRPHCTPRP	-0.147
RRIRARPPRLPRPRPRPATFPRP	0.129
RRIRGRPPRLPRPRPRPTTLPRP	0.507
RRIRERPPRLPRPRPRPYLEPRP	-0.271
RRIRERPPRLPRPRPRPNSAPRP	-0.503
RRIRFRPPRLPRPRPRPGHMPRP	-0.0911
RRIRPRPPRLPRPRPRPHILPRP	-0.381
RRIRPRPPRLPRPRPRPQAWPRP	0.179
RRIRFRPPRLPRPRPRPVVIPRP	0.0715
RRIRGRPPRLPRPRPRPCHPPRP	-0.119
RRIRPRPPRLPRPRPRPNGEPRP	0.137
RRIRGRPPRLPRPRPRPFELPRP	0.0951
RRIRSRPPRLPRPRPRPCMEPRP	-0.292
RRIRTRPPRLPRPRPRPVSWPRP	0.522
RRIRSRPPRLPRPRPRPHKRPRP	0.0245
RRIRNRPPRLPRPRPRPWPIPRP	-0.0597
RRIRRRPPRLPRPRPRPSQVPRP	0.0533
RRIRARPPRLPRPRPRPKTGPRP	0.427

Sequence	shrunken log2 fold change
RRIRVRPPRLPRPRPRPEELPRP	-0.0522
RRIRTRPPRLPRPRPRPGYDPRP	-0.697
RRIRVRPPRLPRPRPRPDSSPRP	-0.0452
RRIRARPPRLPRPRPRPYGTPRP	-0.131
RRIRCRPPRLPRPRPRPIVCPRP	-0.272
RRIRQRPPRLPRPRPRPVGWPRP	0.72
RRIRWRPPRLPRPRPRPFRLPRP	-0.394
RRIRVRPPRLPRPRPRPWWCPRP	-0.0966
RRIRMRPPRLPRPRPRPYRMPRP	-0.219
RRIRARPPRLPRPRPRPMSEPRP	0.337
RRIRCRPPRLPRPRPRPLCEPRP	-0.0345
RRIRERPPRLPRPRPRPRWFPRP	0.0416
RRIRVRPPRLPRPRPRPFDMPRP	-0.16
RRIRARPPRLPRPRPRPMFAPRP	0.52
RRIRYRPPRLPRPRPRPIWVPRP	-0.0696
RRIRKRPPRLPRPRPRPTKHPRP	0.195
RRIRHRPPRLPRPRPRPRGDPRP	0.263
RRIRERPPRLPRPRPRPVIGPRP	-0.108
RRIRYRPPRLPRPRPRPIVIPRP	-0.0448
RRIRCRPPRLPRPRPRPQLYPRP	-0.236
RRIRQRPPRLPRPRPRPMYGPRP	-0.0233
RRIRARPPRLPRPRPRPDTKPRP	0.0293
RRIRDRPPRLPRPRPRPCYWPRP	0.00776

Sequence	shrunken log2 fold change
RRIRNRPPRLPRPRPRPMLGPRP	0.0259
RRIRSRPPRLPRPRPRPNWVPRP	-0.214
RRIRKRPPRLPRPRPRPTGAPRP	1.09
RRIRVRPPRLPRPRPRPEPEPRP	0.515
RRIRIRPPRLPRPRPRPTQGPRP	-0.104
RRIRMRPPRLPRPRPRPMYGPRP	0.0383
RRIRHRPPRLPRPRPRPKECPRP	-0.212
RRIRIRPPRLPRPRPRPFQNPRP	-0.296
RRIRFRPPRLPRPRPRPFCHPRP	-0.433
RRIRWRPPRLPRPRPRPTNYPRP	-0.347
RRIRYRPPRLPRPRPRPLFRPRP	-0.66
RRIRWRPPRLPRPRPRPNREPRP	-0.0677
RRIRCRPPRLPRPRPRPEVYPRP	-0.0302
RRIRYRPPRLPRPRPRPGDMPRP	-0.464
RRIRARPPRLPRPRPRPSKYPRP	-0.464
RRIRFRPPRLPRPRPRPFYIPRP	-0.489
RRIRCRPPRLPRPRPRPASAPRP	0.248
RRIRDRPPRLPRPRPRPVVQPRP	-0.0248
RRIRPRPPRLPRPRPRPGWAPRP	0.623
RRIRLRPPRLPRPRPRPGHIPRP	-0.197
RRIRHRPPRLPRPRPRPTWRPRP	0.381
RRIRQRPPRLPRPRPRPRFLPRP	-0.0439
RRIRLRPPRLPRPRPRPAAEPRP	0.432

Sequence	shrunken log2 fold change
RRIRNRPPRLPRPRPRPFKPPRP	-0.239
RRIRLRPPRLPRPRPRPWLNPRP	-0.183
RRIRKRPPRLPRPRPRPPLCPRP	0.668
RRIRVRPPRLPRPRPRPYRSPRP	-1.55
RRIRNRPPRLPRPRPRPLNEPRP	-0.233
RRIRWRPPRLPRPRPRPMCSPRP	0.197
RRIRARPPRLPRPRPRPWTRPRP	0.27
RRIRPRPPRLPRPRPRPQNNPRP	-0.812
RRIRKRPPRLPRPRPRPISMPRP	-0.00992
RRIRPRPPRLPRPRPRPEKPPRP	-0.129
RRIRDRPPRLPRPRPRPPWCPRP	0.203
RRIRDRPPRLPRPRPRPRWKPRP	0.0064
RRIRCRPPRLPRPRPRPTGCPRP	-0.0358
RRIRCRPPRLPRPRPRPQPMPRP	-0.0366
RRIRARPPRLPRPRPRPFDNPRP	0.098
RRIRQRPPRLPRPRPRPPQIPRP	0.238
RRIRKRPPRLPRPRPRPYSVPRP	-0.114
RRIRTRPPRLPRPRPRPCSYPRP	-0.129
RRIRNRPPRLPRPRPRPSNPPRP	0.0568
RRIRDRPPRLPRPRPRPIYFPRP	-0.839
RRIRFRPPRLPRPRPRPNWIPRP	-0.426
RRIRHRPPRLPRPRPRPDAQPRP	0.0391
